Laboratory results reported in patent publication US5480971A, “Peralkylated oligopeptide mixtures” (Houghten Pharmaceuticals, Inc., priority 1994, dated 1996).
Square brackets hold non-standard residues; d marks the D form. Ends that are not written are not given here. Peptide text beside a SMILES is read from it. * marks the point of attachment. NMeF = CN[C@@H](Cc1ccccc1)C(=O)O; X3 = C[C@@H](C(=O)*)[N+](C)(C)C; NMeL = CN[C@@H](CC(C)C)C(=O)O; Sar = CNCC(=O)O

Experiments:
Type in all cases: in vitro ADME
[1] = Enzymatic susceptibility to chymotrypsin (RP-HPLC, mass spectral analysis); conditions: chymotrypsin; overnight enzyme exposure (16 hours), room temperature, pH 7.8; read-out: cleavage by chymotrypsin
Description: (§1) The stability of N-permethylated compounds to proteolysis was examined for two permethylated sequences, AlaGlyGlyPheLeu-NH2 (SEQ ID NO:37) and ArgGlyGlyPheLeu-NH2 (SEQ ID NO:38) with their non-permethylated equivalents used as controls. Treatment of these found compounds by trypsin and chymotrypsin was monitored by RP-HPLC and mass spectral analysis. Rapid cleavage of AGGFL-NH2 (SEQ ID NO:37) by chymotrypsin and RGGFL-NH2 (SEQ ID N0:38) by trypsin was observed (<1 hour), whereas less than 1 percent cleavage of the equivalent permethylated peptides was seen following overnight enzyme exposure.
(§2) The assays were performed in 1 ml 0.1M NH4 HCO3, pH 7.8, at room temperature for 16 hours at a peptide concentration of 1.0 mg/ml. Enzyme to peptide concentration was 1:50.

chymotrypsin = test: as above; conditions: peptide 1.0 mg/ml, enzyme to peptide 1:50, 0.1M NH4HCO3 pH 7.8, room temperature
Description: as §1, §2

trypsin = test: Enzymatic susceptibility to trypsin (RP-HPLC, mass spectral analysis); conditions: peptide 1.0 mg/ml, enzyme to peptide 1:50, 0.1M NH4HCO3 pH 7.8, room temperature
Description: as §1, §2

## CNC(=O)[C@H](CC(C)C)N(C)C(=O)[C@H](Cc1ccccc1)N(C)C(=O)CN(C)C(=O)CN(C)C(=O)[C@H](C)[N+](C)(C)C [PerA-AGGFL] (X3-[Sar][Sar][NMeF][NMeL]-NHMe)
[1]
  metabolised at 16 h, 1 mg/ml: < 1%

## AlaGlyGlyPheLeu-NH2 (AGGFL-NH2) [non-permethylated equivalent used as control, reference compound]
chymotrypsin
  time in which cleavage by chymotrypsin was observed: < 1 h

## ArgGlyGlyPheLeu-NH2 (RGGFL-NH2) [non-permethylated equivalent used as control]
trypsin
  time in which cleavage by trypsin was observed: < 1 h
